Values of other authors as cited in paper PMC12291208.

Key:
[1] = molecular target: Lys92 (UniProt position 174, RGLAYKYADGK); conditions: folded protein; Lys92 buried, Lys118 solvent exposed
[2] = molecular target: Lys118 (UniProt position 200, YVYKPKNTHEQ); conditions: folded protein; Lys92 buried, Lys118 solvent exposed

| Substance | pKa [1] | pKa [2] |
| --- | --- | --- |
| Staphylococcal nuclease (SNase) I92K variant (Staphylococcus aureus (inferred from 'staphylococcal'); I92K) | 5.2 | – |
| Staphylococcal nuclease (SNase) N118K variant (Staphylococcus aureus (inferred from 'staphylococcal'); N118K) | – | 10.4 |
